Series [1] deals with MBT2 tumors. The experiment in a line: MBT2 syngeneic bladder cancer model, efficacy. It is filed as in vivo, C3H/HeN mouse. The protocol:
Group 1 received anti-PD-1 antibody only. […] An untreated control was used, not shown.
(§1) All antibodies were dosed intraperitoneally.

Series [2] concerns Cloudman S91 tumors. Nature of the series: Cloudman S91 melanoma model. It is filed as in vivo, DBA/2 mouse. Particulars: dose range 3, 10 and 30 mg/kg. On the procedure:
Clone M3 [Cloudman S91 melanoma] (ATCC® CCL-53.1™) cells were obtained from the American Type Culture Collection (ATCC), and were maintained at CR Discovery Services as exponentially growing suspension cultures in Kaighn's modified Ham's F12 Medium supplemented with 2.5% fetal bovine serum, 15% horse serum, 2 mM glutamine, 100 units/mL penicillin G sodium, 100 μg/mL streptomycin sulfate and 25 μg/mL gentamicin. The tumor cells were grown in tissue culture flasks in a humidified incubator at 37° C., in an atmosphere of 5% CO2 and 95% air.
When tumors reached a volume of 125-175 mm^3 mice were randomized into groups of 12 with identical mean tumor volumes and dosing began.
Group 1 received anti-PD-1 antibody only. […] An untreated control was used, data not shown.
Percent tumor growth delay (% TGD) is defined as the increase in the median time to endpoint in a treatment group compared to the untreated control, expressed as a percentage of the median time to endpoint (TTE) of the control: • T=median TTE for treatment • C=median TTE for control
Results are summarized below (see FIGS. 9, 11 & 12).
as §1

In series [3] the test system is intratumoral immune cells in MBT2 tumors. The experiment in a line: MBT2 tumor immune contexture (flow cytometry, IHC, qPCR). The format is in vivo, mouse. Particulars: MBT-2. From the text:
To study the immune effects of anti-PD-1 or Ab6-mIgG1 treatment as single agents or in combination, MBT-2 tumors were harvested from mice 10 days after treatment initiation and then subjected to immunohistochemical and flow cytometry analyses of select immune cell markers. […] The relevance of this increase in Treg cells is unclear given the significant anti-tumor effects observed with combination treatment. […] This appears to be due to selective reduction in CD11 b+CD206+ and CD11 b+Gr1+ subpopulations, which correspond to immunosuppressive M2-like macrophages and myeloid-derived suppressor cells (MDSC), respectively. Collectively, the representation of these two populations of cells is reduced from an average of 47% of the CD45+ cell population to 14% after combination treatment (FIG. 28B).
Each study group contained 12 mice with MBT2 tumors as described herein. […]
Flow cytometric analysis: Tumor-associated immune cell subsets were also analyzed by tumor flow cytometry in MBT-2 tumors. […] Flow cytometry was performed on a Attune NxT (ThermoFisher) and analyzed with FlowJo (BD Bioscience).
For immunohistochemical analysis, tumors from six animals were cut in halves and fixed. […] FIG. 30E provides the quantitation of the IHC data, shown as % of CD8-positive cells of total nuclei. […]
For orientation: A flow cytometer gives signals particle by particle.

In series [4] the test system is EMT6 tumors. Nature of the series: EMT-6 syngeneic breast carcinoma model. It is filed as in vivo, BALB/c mouse. As to conditions: dose 10 mg/kg. The protocol: EMT6 tumors were implanted subcutaneously. Treatment began when EMT6 tumors reached 30-80 mm^3. Anti-PD-1 was dosed at 10 mkg twice weekly. […] Anti-TGFβ3 neutralizing antibody was dosed at 30 mkg once weekly.
Responders are defined as those achieving tumor size of <25% of the endpoint volume at study end.
as §1

Series [5] in a line: first-in-human dose selection (allometric scaling, PAD, safety factors). Particulars: S91, MBT-2, EMT-6 models, with anti-PD-1. On the procedure:
In vivo pharmacology data was utilized to predict the human pharmacological active dose (PAD) and recommended the FIH dose. In addition, safety margins were determined between the predicted exposure at the recommended FIH dose and the exposure achieved at the NOAELs in toxicology studies.

For series [6] the following is noted: mouse, in vivo, iv.
Procedure: Pharmacokinetics studies were conducted in female C57BL/6 mice, SD rats, and cynomolgus monkeys. […] A non-GLP single-dose PK study was performed in C57BL/6 mice (10-11 weeks) at Gateway Pharmacology Laboratories in Chesterfield, Mo. Additional pharmacokinetic and toxicology studies were conducted in naive young adult Sprague Dawley rats (7-10 weeks) and cynomolgus monkeys (2-4 years).
The lower limit of quantitation (LLOQ) for the non-GLP assays were 125, 125, and 250 ng/mL for the mouse, rat, and cynomolgus monkey, respectively; and 75 ng/mL for the optimized and validated GLP assays (rat and monkey). The absorbance-versus concentration relationship was regressed using a 4-parameter logistic curve fit (with a weighting factor of 1/Y2 for the validated assays to support the toxicokinetic studies), and concentrations were calculated using GraphPad Prism or Watson LIMS (Thermo, Pennsylvania, USA) data reduction software.
Female mice were group housed (3-5 mice/cage) in polycarbonate cages containing appropriate bedding and water valves in a controlled environment (17.8-26.7° C.; 30-70% relative humidity; 12-hour light and dark cycles) and were offered standard rodent chow (PicoLab Rodent Diet 20) and tap water ad libitum. Mice were randomly assigned to treatment groups for all studies.
PK parameters were calculated in Phoenix® WinNonlin® (Certara USA Inc.) from the concentration-time data using a noncompartmental analysis method with intravenous (IV) bolus input. Nominal doses and sampling times were used. […] Area under the concentration time curve (AUC) was computed using the linear trapezoidal approximation method. Terminal half-life (t1/2) was estimated by log-linear regression of the terminal phase of the mean concentration versus time profiles. At least 3 points clearly visible in the terminal phase, an r^2 value of at least 0.8, and time interval of at least 3 half-lives (in the GLP toxicity studies only) were required to characterize half-life.
In series [7] the target is T1, proTGFβ1 / latent TGFβ1 (Homo sapiens, UniProt P01137, C33S).
T1 construct: The small latent TGFβ complexes were expressed with an N-terminal His-tag; His-tag (N); made in house; host or cells: Expi293F cells
T1 sequence (P01137 with tags, fused parts or gaps C33S): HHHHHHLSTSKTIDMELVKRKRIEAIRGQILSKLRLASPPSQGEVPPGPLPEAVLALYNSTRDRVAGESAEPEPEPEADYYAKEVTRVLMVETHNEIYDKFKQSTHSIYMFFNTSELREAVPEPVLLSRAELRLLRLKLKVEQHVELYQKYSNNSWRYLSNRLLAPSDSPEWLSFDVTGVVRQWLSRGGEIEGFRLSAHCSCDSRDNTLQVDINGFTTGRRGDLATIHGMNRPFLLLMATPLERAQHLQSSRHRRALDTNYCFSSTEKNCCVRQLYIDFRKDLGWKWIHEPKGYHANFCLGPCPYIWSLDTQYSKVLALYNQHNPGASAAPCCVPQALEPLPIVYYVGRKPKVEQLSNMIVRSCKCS
Nature of the series: HDX-MS epitope mapping. As to conditions: Fab binding. From the text: To gain initial insights into the inhibitory mechanism of action for the isoform-selective inhibitors of TGFβ1 activation, we performed Hydrogen-Deuterium Exchange Mass Spectrometry (H/DX-MS) analysis to identify possible sites of latent TGFβ1 interaction with the antibody. Hydrogen/Deuterium exchange mass spectrometry (HDX-MS) is a widely used technique for exploring protein conformation in solution. HDX-MS methodology is described in Wei et al., Drug Discov Today. 2014 January; 19(1): 95-102, incorporated by reference in its entirety herein. Briefly, HDX-MS relies on the exchange of the protein backbone amide hydrogens with deuterium in solution. […]
Accurate mass and collision-induced dissociation in data-independent acquisition mode (MSE) and ProteinLynx Global Server (PLGS) 3.0 software (Waters Corp., Milford, Mass.) were used to determine the peptic peptides in the undeuterated protein samples analyzed on the same UPLC-ESI-QToF system used for H/DX-MS experiments. […] The relative deuterium incorporation of each peptide was determined by subtracting the weight-averaged centroid mass of the isotopic distribution of undeuterated control sample from that of the weight-averaged centroid mass of the isotopic distribution of deuterium-labeled samples at each labeling time point. […]

Series [8] concerns the target T2, human LRRC33-ProTGFb1 (Homo sapiens, UniProt P01137).
T2 construct: made in house
Nature of the series: SPR (Biacore 8K) Fab binding kinetics. As to conditions: Fab 0.62-10 nM, 1:1 binding model. The protocol: (§2) Briefly, the binding kinetics were evaluated by surface plasmon resonance using Biacore 8K (GE Healthcare). A Biotin CAP sensor chip was used to capture the biotinylated antigens. Fabs at various concentrations (0 nM, 0.62 nM, 1.25 nM, 2.5 nM, 5 nM and 10 nM) were injected over the captured antigens. Multi-cycle kinetics was employed where each analyte concentration was injected in a separate cycle and the sensor chip surface was regenerated after each cycle. All the assays were carried out in freshly prepared 1×HBS-EP+ buffer (10 mM HEPES, 150 mM NaCl, 3 mM EDTA, 0.05% Tween20, pH 7.4). Data for all the analyte concentrations for each interaction were fit globally to a 1:1 binding model to obtain the kinetic parameters. The Sensorgram for 0 nM analyte concentration was used as reference.
(§3) Binding kinetics was evaluated by surface plasmon resonance using a Biacore 8K (GE) instrument. Biotinylated antigens were captured on a Biotin CAP chip and the Fab fragments of the antibodies were used as analytes. Sensorgrams for Fab binding at variable concentrations (0.6-10 nM) were globally fit to obtain the kinetic parameters. Binding kinetics for the Fabs were evaluated against each of the four human antigens, LTBP1-ProTGFb1, LTBP3-ProTGFb1, GARP-ProTGFb1, and LRRC33-ProTGFb1.
A general note: SPR reads the build-up and loss of mass on a sensor chip optically.

The target of series [9] is T3, human LTBP3-ProTGFb1 (Homo sapiens, UniProt P01137).
T3 construct: made in house; host or cells: Expi293F cells, co-transfected with pTT5 plasmids
T3 sequence (P01137 30-390): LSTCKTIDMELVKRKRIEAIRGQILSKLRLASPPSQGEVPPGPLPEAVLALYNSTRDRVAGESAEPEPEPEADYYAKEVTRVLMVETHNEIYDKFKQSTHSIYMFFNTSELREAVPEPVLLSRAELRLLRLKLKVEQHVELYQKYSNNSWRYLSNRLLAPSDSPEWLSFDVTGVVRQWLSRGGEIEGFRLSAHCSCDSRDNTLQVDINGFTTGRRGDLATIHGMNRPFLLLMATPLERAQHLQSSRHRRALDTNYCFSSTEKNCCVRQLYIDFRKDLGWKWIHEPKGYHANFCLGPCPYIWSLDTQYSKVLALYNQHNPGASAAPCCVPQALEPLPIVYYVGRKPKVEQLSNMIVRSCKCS
T3 sequence (Q9NS15 866-1039 partner limits assumed): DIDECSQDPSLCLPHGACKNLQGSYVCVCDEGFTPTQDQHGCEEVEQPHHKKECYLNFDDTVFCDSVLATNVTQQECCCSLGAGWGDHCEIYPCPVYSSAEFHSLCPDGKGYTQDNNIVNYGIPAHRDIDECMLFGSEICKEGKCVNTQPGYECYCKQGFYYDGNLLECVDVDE
The experiment in a line: SPR (Biacore 8K) Fab binding kinetics. As to conditions: Fab 0.62-10 nM, 1:1 binding model. The protocol: as §2, §3

Series [10] addresses T4, human LTBP1-ProTGFb1 (Homo sapiens, UniProt P01137).
T4 construct: made in house; host or cells: Expi293F cells, co-transfected with pTT5 plasmids
The experiment in a line: SPR (Biacore 8K) Fab binding kinetics. As to conditions: Fab 0.62-10 nM, 1:1 binding model. On the procedure: as §2, §3

In series [11] the target is T5, human GARP-ProTGFb1 (Homo sapiens, UniProt P01137).
T5 construct: made in house
T5 sequence (P01137 30-390): as the sequence (P01137 30-390) above
T5 sequence (Q14392 20-627 partner limits assumed): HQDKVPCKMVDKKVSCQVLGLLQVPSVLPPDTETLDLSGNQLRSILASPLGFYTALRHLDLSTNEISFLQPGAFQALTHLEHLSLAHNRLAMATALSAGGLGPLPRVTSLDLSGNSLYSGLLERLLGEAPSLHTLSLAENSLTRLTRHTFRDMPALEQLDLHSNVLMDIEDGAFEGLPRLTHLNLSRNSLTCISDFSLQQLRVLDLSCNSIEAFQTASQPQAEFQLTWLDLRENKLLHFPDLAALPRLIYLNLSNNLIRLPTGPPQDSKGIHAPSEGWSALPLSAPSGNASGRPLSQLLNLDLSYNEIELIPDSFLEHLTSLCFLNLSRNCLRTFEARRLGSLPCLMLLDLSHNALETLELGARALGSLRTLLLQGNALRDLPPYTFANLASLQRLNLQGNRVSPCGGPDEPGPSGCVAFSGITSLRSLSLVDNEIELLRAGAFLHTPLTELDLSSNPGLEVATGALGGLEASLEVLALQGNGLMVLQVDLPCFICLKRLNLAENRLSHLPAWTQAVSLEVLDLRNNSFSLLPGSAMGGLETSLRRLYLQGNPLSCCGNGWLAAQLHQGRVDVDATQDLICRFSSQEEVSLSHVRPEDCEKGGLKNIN
Nature of the series: SPR (Biacore 8K) Fab binding kinetics. Particulars: Fab 0.62-10 nM, 1:1 binding model. The protocol: as §2, §3

Read-outs that look alike come from different tables or passages of the source.

We go through 2 molecules from patent US20230050148A1, “TGF-BETA INHIBITORS AND USE THEREOF” (SCHOLAR ROCK, INC., priority 2020, published 2023).

In general, koff refers to the first-order rate constant of dissociation. The term kon denotes the second-order rate constant of association. High values mean faster complex formation, low ones slower complex formation.

T4 sequence (P01137 30-390): as the sequence (P01137 30-390) above
T4 sequence (Q14766 873-1507 partner): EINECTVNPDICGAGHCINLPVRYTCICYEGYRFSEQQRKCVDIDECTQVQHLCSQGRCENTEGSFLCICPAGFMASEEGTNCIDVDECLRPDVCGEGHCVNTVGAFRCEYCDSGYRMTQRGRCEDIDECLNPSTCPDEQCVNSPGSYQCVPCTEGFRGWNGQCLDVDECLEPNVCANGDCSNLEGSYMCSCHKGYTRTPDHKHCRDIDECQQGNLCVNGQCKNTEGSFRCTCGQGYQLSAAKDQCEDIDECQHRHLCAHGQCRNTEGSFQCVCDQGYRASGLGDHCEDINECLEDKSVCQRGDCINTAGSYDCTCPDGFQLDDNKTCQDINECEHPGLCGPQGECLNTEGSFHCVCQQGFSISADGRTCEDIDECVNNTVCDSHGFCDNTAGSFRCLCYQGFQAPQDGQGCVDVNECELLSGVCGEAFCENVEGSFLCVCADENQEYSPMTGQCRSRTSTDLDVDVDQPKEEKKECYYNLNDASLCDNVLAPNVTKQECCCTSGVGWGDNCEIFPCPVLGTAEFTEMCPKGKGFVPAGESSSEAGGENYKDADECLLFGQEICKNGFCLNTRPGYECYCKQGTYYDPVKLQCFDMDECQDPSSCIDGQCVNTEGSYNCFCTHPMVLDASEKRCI
T2 sequence (P01137 30-390): as the sequence (P01137 30-390) above
T2 sequence (Q86YC3 19-650 partner limits assumed): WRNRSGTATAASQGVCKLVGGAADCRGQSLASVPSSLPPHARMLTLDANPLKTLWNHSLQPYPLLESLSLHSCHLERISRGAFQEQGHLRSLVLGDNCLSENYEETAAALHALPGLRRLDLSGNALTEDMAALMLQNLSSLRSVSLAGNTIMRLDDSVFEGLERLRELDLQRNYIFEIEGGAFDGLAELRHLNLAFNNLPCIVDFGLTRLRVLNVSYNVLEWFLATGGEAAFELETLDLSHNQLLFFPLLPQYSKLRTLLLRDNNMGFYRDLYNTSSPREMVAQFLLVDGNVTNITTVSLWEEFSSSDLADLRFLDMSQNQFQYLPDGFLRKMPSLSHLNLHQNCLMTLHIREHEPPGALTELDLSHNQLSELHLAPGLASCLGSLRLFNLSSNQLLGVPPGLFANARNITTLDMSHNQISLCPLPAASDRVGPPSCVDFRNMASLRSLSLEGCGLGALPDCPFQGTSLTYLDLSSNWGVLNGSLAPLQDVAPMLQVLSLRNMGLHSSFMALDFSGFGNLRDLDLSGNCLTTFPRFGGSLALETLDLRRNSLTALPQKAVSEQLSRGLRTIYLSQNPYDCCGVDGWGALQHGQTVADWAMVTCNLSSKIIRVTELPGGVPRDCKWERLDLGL

B1: Ab6-mIgG1: chimeric antibody with the human V domains of Ab6 fused to mouse IgG1/kappa constant domains (protein)
heavy chain: EVQLVESGGGLVQPGGSLRLSCTASGFTFSSFSMDWVRQAPGKGLEWVSYISPSADTIYYADSVKGRFTISRDNAKNTLYLQMNSLRAEDTAVYYCARGVLDYGDMLMPWGQGTLVTVSS
light chain: DIQMTQSPSSLSASVGDRVTITCQASQDITNYLNWYQQKPGKAPKLLIYDASNLETGVPSRFSGSGSGTDFTFTISSLQPEDIATYYCQQADNHPPWTFGGGTKVEIK
Turning to B1, the tumor-free survivors is 21% in series [1] (MBT2, 3 mg/kg per week + anti-PD-1) and 36% in series [1] (MBT2, 10 mg/kg per week + anti-PD-1). Also, the PAD in [1] (MBT-2, dose range 3 and 10 mg/kg) is 10 mg/kg; in series [2], 3 mg/kg; in series [4] it was 10 mg/kg. In series [3], the “pSmad3 staining in tumor vascular endothelium” value was “much diminished”. In addition, the “pharmacologically active dose (range)” value in series [5] is recorded as 3-10 mg/kg. Besides, in series [6], the “Cmax (mean, range over dose groups)” value fell in the range of 7400 to 664000 ng/mL. Also, the results for the AUC0-inf in [6] (3 mg/kg), in series [6] (10 mg/kg) and in [6] (30 mg/kg) were 4890 µg·h/mL, 17800 µg·h/mL and 64200 µg·h/mL, respectively. The values for the AUClast in series [6] (3 mg/kg), in [6] (10 mg/kg) and in series [6] (30 mg/kg) were 4710 µg·h/mL, 17400 µg·h/mL and 64100 µg·h/mL, respectively.

B2: Ab6 Fab: Fab fragment of Ab6 used as analyte in SPR and in HDX-MS (antibody, V domains shown)
VH: B1 heavy chain
VL: B1 light chain
In the case of B2, the “regions on proTGFβ1 strongly protected from deuterium exchange” value in series [7] was “three binding regions”. The off-rate constant (koff) in series [8] was 0.000123 s⁻¹; in [9] it was 0.000831 s⁻¹; in series [10] it was 0.000255 s⁻¹; in series [11], 0.000218 s⁻¹. The kon stood at 845000 M⁻¹ s⁻¹ in series [8], 1.7e+06 M⁻¹ s⁻¹ in [9], 2.05e+06 M⁻¹ s⁻¹ in [10] and 2.1e+06 M⁻¹ s⁻¹ in series [11].
